Measured values taken from publication PMC314469, “Protein Interaction Networks by Proteome Peptide Scanning” (PLoS Biology, 2004).

Tests used:
Experiment in all cases: SPOT array
[1] = target: T1, Boi1 SH3 (BOI1_YEAST), P38041
T1 chain: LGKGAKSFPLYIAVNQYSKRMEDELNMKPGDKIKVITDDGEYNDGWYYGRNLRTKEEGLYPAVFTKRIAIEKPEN

[2] = target: T2, Boi2 SH3 (BOI2_YEAST), P39969
T2 chain: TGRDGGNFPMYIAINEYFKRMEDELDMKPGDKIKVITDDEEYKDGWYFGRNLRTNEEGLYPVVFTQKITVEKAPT

[3] = target: T3, Myo5 SH3 (MYO5_YEAST), Q04439
T3 chain: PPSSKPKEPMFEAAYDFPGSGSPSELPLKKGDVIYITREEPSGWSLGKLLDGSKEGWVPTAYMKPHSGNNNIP

[4] = target: T4, Rvs167 SH3 (RV167_YEAST), P39743
T4 chain: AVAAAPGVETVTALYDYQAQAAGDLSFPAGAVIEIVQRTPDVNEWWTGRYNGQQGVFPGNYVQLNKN

[5] = target: Sho1 SH3 (SHO1_YEAST), P40073
[6] = target: T5, Yfr024 SH3 (LSB3_YEAST), P43603
T5 chain: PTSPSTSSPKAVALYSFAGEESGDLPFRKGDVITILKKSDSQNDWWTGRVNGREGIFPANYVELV

[7] = target: T6, Yhr016c SH3 (YSC84_YEAST), P32793
T6 chain: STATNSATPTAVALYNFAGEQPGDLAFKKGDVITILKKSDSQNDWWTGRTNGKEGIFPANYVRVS

Sequence of Sho1 SH3 (SHO1_YEAST), P40073 (P40073 295-366): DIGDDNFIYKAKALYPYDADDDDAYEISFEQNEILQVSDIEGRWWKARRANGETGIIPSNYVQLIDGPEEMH

Binder | normalised SPOT signal, Boehringer light units (BLU); mean over the file's lines of this peptide [1] | normalised SPOT signal, Boehringer light units (BLU); mean over the file's lines of this peptide [2] | normalised SPOT signal, Boehringer light units (BLU); mean over the file's lines of this peptide [3] | normalised SPOT signal, Boehringer light units (BLU); mean over the file's lines of this peptide [4] | normalised SPOT signal, Boehringer light units (BLU); mean over the file's lines of this peptide [5] | normalised SPOT signal, Boehringer light units (BLU); mean over the file's lines of this peptide [6] | normalised SPOT signal, Boehringer light units (BLU); mean over the file's lines of this peptide [7]
FKVYRWNPDEPSAK [YLL041C 36-49] | 892 | 28.9 | 99 | 99.4 | 75.1 | 154 | 29.3
FLHSKKIPEVPQTD [YGR281W 89-102] | 37.9 | 8.2 | 288 | 15.3 | 1190 | 15.3 | 25.6
FLLKKMFPAPPLPT [YDL172C 130-143] | 235 | 27.9 | 23700 | 52.4 | 149 | 132 | 40.3
FLQDRVIPIFPHYP [YMR283C 55-68] | 102 | 1.2 | 261 | 72.9 | 4.9 | 173 | 26.6
FNGDRLVPTLPTVS [YPR095C 191-204] | 132 | 190 | 161 | 2290 | 40 | 2210 | 750
FQDYRSSPWSPSRS [YLR169W 87-100] | 33700 | 314 | 264 | 575 | 953 | 548 | 221
FQPQRTAPKPPISA [YNL298W 451-464] | 4820 | 19.6 | 88300 | 148 | 39.8 | 379 | 21.1
FQYTKGRPLAPKGA [YGL009C 253-266] | 59.6 | 14.9 | 235 | 22.3 | 66.9 | 190 | 42.6
FRPHRLAPSAPATK [YOL113W 305-318] | 9160 | 26 | 1410 | 228 | 44.7 | 1010 | 109
FSKKKEAPEDPKNL [YNL231C 5-18] | 56.7 | 18.3 | 148 | 66.9 | 42.3 | 13.4 | 21.7
FSTKKSKPIRPFVF [YMR259C 335-348] | 267 | 30.8 | 378 | 228 | 182 | 864 | 66.2
FVFFKSLPDLPKPQ [YML104C 41-54] | 129 | 8.6 | 860 | 179 | 35800 | 448 | 80.2
FVSPRRAPKPPSYP [YER114C 436-449] | 4960 | 13.1 | 1580 | 42.1 | 96.2 | 826 | 70.9
FYDFRSLPKVPTTQ [YPR151C 52-65] | 4350 | 74.9 | 337 | 263 | 30200 | 3030 | 496
FYKEKAKPLEPILD [YGL195W 1152-1165] | 80.5 | 27.8 | 87.7 | 25.4 | 62.7 | 0 | 57
GDEERFLPNRPHYE [YPR117W 1311-1324] | 54.3 | 34.4 | 126 | 10.7 | 37.9 | 1300 | 653
